From the supplement of paper PMC11246515
± gives the standard deviation of the averaged measurements.

Test: total protein half-life in vivo (active degradation + dilution); higher = more stable protein
[1] = E. coli NCM3722 delta-clpP delta-lon delta-hslV, growth: N-lim chemostat, doubling time 6 h
[2] = E. coli NCM3722 delta-clpP, growth: N-lim chemostat, doubling time 6 h
[3] = E. coli NCM3722 delta-hslV, growth: N-lim chemostat, doubling time 6 h
[4] = E. coli NCM3722 delta-lon, growth: N-lim chemostat, doubling time 6 h
[5] = E. coli NCM3722 delta-smpB, growth: N-lim chemostat, doubling time 6 h
[6] = wild type E. coli NCM3722, growth: C-lim chemostat, doubling time 6 h
[7] = wild type E. coli NCM3722, growth: C-lim chemostat, doubling time 12 h
[8] = wild type E. coli NCM3722, growth: N-lim chemostat, doubling time 6 h
[9] = wild type E. coli NCM3722, growth: N-lim chemostat, doubling time 12 h
[10] = wild type E. coli NCM3722, growth: P-lim chemostat, doubling time 6 h
[11] = wild type E. coli NCM3722, growth: P-lim chemostat, doubling time 12 h
[12] = wild type E. coli NCM3722, growth: C-lim chemostat, doubling time 3 h

Sequence | total protein half-life in vivo [1] [h] | total protein half-life in vivo [2] [h] | total protein half-life in vivo [3] [h] | total protein half-life in vivo [4] [h] | total protein half-life in vivo [5] [h] | total protein half-life in vivo [6] [h] | total protein half-life in vivo [7] [h] | total protein half-life in vivo [8] [h] | total protein half-life in vivo [9] [h] | total protein half-life in vivo [10] [h] | total protein half-life in vivo [11] [h] | total protein half-life in vivo [12] [h]
MAAINTKVKKAVIPVAGLGTRMLPATKAIPKEMLPLVDKPLIQYVVNECIAAGITEIVLVTHSSKNSIENHFDTSFELEAMLEKRVKRQLLDEVQSICPPHVTIMQVRQGLAKGLGHAVLCAHPVVGDEPVAVILPDVILDEYESDLSQDNLAEMIRRFDETGHSQIMVEPVADVTAYGVVDCKGVELAPGESVPMVGVVEKPKADVAPSNLAIVGRYVLSADIWPLLAKTPPGAGDEIQLTDAIDMLIEKETVEAYHMKGKSHDCGNKLGYMQAFVEYGIRHNTLGTEFKAWLEEEMGIKK [P0AEP3] | 4.77 ± 0.41 | 4.87 ± 0.81 | 4.91 ± 0.62 | 5.41 ± 0.14 | 4.728 ± 0.0092 | 5.71 ± 0.23 | 10.8 ± 1.1 | 4.65 ± 0.13 | 7.63 ± 0.25 | 5.72 ± 0.074 | 11.6 ± 0.14 | 
MAANAFVRARIDEDLKNQAADVLAGMGLTISDLVRITLTKVAREKALPFDLREPNQLTIQSIKNSEAGIDVHKAKDADDLFDKLGI | 2.38 ± 0.28 |  |  |  |  | 0.925 ± 0.13 | 0.789 | 0.421 | 4.6 | 0.432 | 1.38 | 
MAAVNLRHIEIFHAVMTAGSLTEAAHLLHTSQPTVSRELARFEKVIGLKLFERVRGRLHPTVQGLRLFEEVQRSWYGLDRIVSAAESLREFRQGELSIACLPVFSQSFLPQLLQPFLARYPDVSLNIVPQESPLLEEWLSAQRHDLGLTETLHTPAGTERTELLSLDEVCVLPPGHPLAVKKVLTPDDFQGENYISLSRTDSYRQLLDQLFTEHQVKRRMIVETHSAASVCAMVRAGVGISVVNPLTALDYAASGLVVRRFSIAVPFTVSLIRPLHRPSSALVQAFSGHLQAGLPKLVTSLDAILSSATTA | 7.04 ± 0.23 | 4.89 |  |  | 5.18 ± 2.1 | 6.28 | 11.805 ± 0.0096 | 5.91 ± 0.071 | > 16 |  | 13.1 ± 0.34 | 3.2 ± 0.26
MADITLISGSTLGGAEYVAEHLAEKLEEAGFTTETLHGPLLEDLPASGIWLVISSTHGAGDIPDNLSPFYEALQEQKPDLSAVRFGAIGIGSREYDTFCGAIDKLEAELKNSGAKQTGETLKINILDHDIPEDPAEEWLGSWVNLLK | 3.22 ± 0.1 | 2.99 | 2.93 ± 0.18 | 3.47 ± 0.17 | 2.78 ± 0.15 | 4.66 ± 0.56 | 9.28 ± 2 | 2.67 ± 0.13 | 3.68 ± 0.24 | 5.07 ± 0.09 | 9.52 ± 0.099 | 2.86 ± 0.48
MADKELKFLVVDDFSTMRRIVRNLLKELGFNNVEEAEDGVDALNKLQAGGYGFVISDWNMPNMDGLELLKTIRADGAMSALPVLMVTAEAKKENIIAAAQAGASGYVVKPFTAATLEEKLNKIFEKLGM [P0AE67] | 4.52 ± 0.43 | 4.01 | 3.69 ± 0.95 | 5.08 ± 0.6 | 4.41 | 4.08 ± 0.41 | 5.96 ± 0.14 | 3.82 ± 0.84 | 5.61 ± 0.14 | 3.91 | 6.33 ± 0.44 | 2.33 ± 0.22
MADTKAKLTLNGDTAVELDVLKGTLGQDVIDIRTLGSKGVFTFDPGFTSTASCESKITFIDGDEGILLHRGFPIDQLATDSNYLEVCYILLNGEKPTQEQYDEFKTTVTRHTMIHEQITRLFHAFRRDSHPMAVMCGITGALAAFYHDSLDVNNPRHREIAAFRLLSKMPTMAAMCYKYSIGQPFVYPRNDLSYAGNFLNMMFSTPCEPYEVNPILERAMDRILILHADHEQNASTSTVRTAGSSGANPFACIAAGIASLWGPAHGGANEAALKMLEEISSVKHIPEFVRRAKDKNDSFRLMGFGHRVYKNYDPRATVMRETCHEVLKELGTKDDLLEVAMELENIALNDPYFIEKKLYPNVDFYSGIILKAMGIPSSMFTVIFAMARTVGWIAHWSEMHSDGMKIARPRQLYTGYEKRDFKSDIKR [P0ABH7] | 4.1 ± 0.75 | 3.04 ± 0.12 | 2.942 ± 0.0099 | 3.4 ± 0.35 | 3.08 ± 0.34 | 5.24 ± 0.23 | 9.82 ± 1.7 | 2.94 ± 0.063 | 4.55 ± 0.57 | 5.57 ± 0.27 | 10.5 ± 0.35 | 3.18 ± 0.15
MADVHDKATRSKNMRAIATRDTAIEKRLASLLTGQGLAFRVQDASLPGRPDFVVDEYRCVIFTHGCFWHHHHCYLFKVPATRTEFWLEKIGKNVERDRRDISRLQELGWRVLIVWECALRGREKLTDEALTERLEEWICGEGASAQIDTQGIHLLA | 5.56 | 4.58 ± 0.72 | 3.63 ± 0.22 | 3.67 | 4.35 ± 1.4 | 4.16 | 8.92 | 3.98 ± 0.43 | 5.45 ± 0.16 | 3.9 ± 0.41 | 9.27 ± 3.3 | 
